5 sequences from article PMC11237755 can be followed below.

Details in all cases: LightShift Chemiluminescent EMSA kit (binding buffer, salt and pH not given), 20 min room temperature; 20 fmol probe, 6% 0.5x TBE gel (TtdV/TtdW); 50 fmol …
The target of data set [1] is T1, TtdV-His6 (Salmonella enterica serovar Typhimurium IR715 (ATCC14028 NalR)) (UniProt Q8ZLP8).
T1 sequence: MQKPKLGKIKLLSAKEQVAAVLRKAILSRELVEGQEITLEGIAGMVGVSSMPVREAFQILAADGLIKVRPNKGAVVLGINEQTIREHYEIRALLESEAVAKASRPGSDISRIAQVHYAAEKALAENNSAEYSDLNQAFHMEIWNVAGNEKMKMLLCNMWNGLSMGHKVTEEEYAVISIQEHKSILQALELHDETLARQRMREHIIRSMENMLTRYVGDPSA
In words: EMSA. A general note: In EMSA bound probe runs differently from free probe, usually more slowly.

Data set [2] deals with T2, His6-ArcA (unphosphorylated) (Salmonella enterica serovar Typhimurium IR715 (ATCC14028 NalR)), ORF:c309dbee.
T2 sequence: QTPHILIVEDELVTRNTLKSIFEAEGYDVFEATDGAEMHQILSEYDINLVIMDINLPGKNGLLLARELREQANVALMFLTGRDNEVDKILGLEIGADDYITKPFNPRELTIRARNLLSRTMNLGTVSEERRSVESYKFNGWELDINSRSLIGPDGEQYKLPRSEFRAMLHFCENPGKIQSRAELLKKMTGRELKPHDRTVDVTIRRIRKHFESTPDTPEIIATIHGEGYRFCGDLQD
The data set is described as follows: EMSA.

The test system of data set [3] is T3, His6-ArcA~P (Salmonella enterica serovar Typhimurium IR715 (ATCC14028 NalR)), ORF:c309dbee.
T3 sequence: T2 sequence
In words: EMSA.

The target of data set [4] is T4, TtdW-His6 (Salmonella enterica serovar Typhimurium IR715 (ATCC14028 NalR)) (UniProt Q8ZLP7).
T4 sequence: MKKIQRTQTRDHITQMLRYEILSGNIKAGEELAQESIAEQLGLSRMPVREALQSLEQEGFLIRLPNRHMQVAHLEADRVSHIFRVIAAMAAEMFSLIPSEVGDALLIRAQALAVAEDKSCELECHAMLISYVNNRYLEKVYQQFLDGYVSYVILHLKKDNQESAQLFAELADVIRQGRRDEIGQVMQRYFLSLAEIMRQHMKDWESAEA
In words: EMSA.

In data set [5] the target is T4, TtdW-His6 (Salmonella enterica serovar Typhimurium IR715 (ATCC14028 NalR)). The data set is described as follows: competition.
Data set [6] concerns T3, His6-ArcA~P (Salmonella enterica serovar Typhimurium IR715 (ATCC14028 NalR)), ORF:c309dbee. In words: competition.

Turning to “GCCTTCTTCGGTGACCTTATGGCCCATCGACAGGCCGTTCCACATATTACAGAGCAACATTTTCATTTTTTCGTTGCCAGCAACATTCCATATTTCCATATGAAATGCCTGATTCAGGTCGGAGTATTCCGCCGAGTTATTTTCCGCGAGAGCCTTTTCAGCGGCATAATGCACCTGGGCTATCCGCGAGATATCGGAGCCAGGACGAGAAGCTTTAGCCACCGCCTCACTTTCTAACAGCGCGCGAATTTCATAGTGTTCACGGATGG (double strand) [Probe 1]”, the binding result in data set [1] is “no binding”; in data set [2], “binds”; in data set [3], “binds”.
As for “ACCGAAGAAGAGTATGCCGTGATTTCCATTCAGGAACATAAAAGTATTCTGCAAGCTCTTGAACTTCATGATGAAACATTGGCACGCCAGCGCATGCGCGAACACATTATTCGCTCAATGGAGAATATGCTGACCCGCTATGTTGGTGACCCTTCTGCCTGATCTTTTCGCCTGCGTGAGCATCGCAGGCGCTTCAACCAATTCTTCAATTCTATTAATCACGTCCAGTAACGATCTAACCACGATCTTGATGTAGC (double strand) [Probe 3]”, the binding entry in data set [1] was “no binding”; in data set [2] it was “binds”; in data set [3] it was “binds”.
In the case of “CGTATGCTGACCCGCTATGTTGGTGACCCTTCTGCCTGATCTTTTCGCCTGCGTGAGCATCGCAGGCGCTTCAACCAATTCTTCAATTCTATTAATCACGTCCAGTAACGATCTAACCACGATCTTGATGTAGATCCCACTCCTGCATCTTTCCTGAGAAACGATTTGACTTAGTTTTTGTATGGGAATAATTTCTCCCTGTCAACATTGGATACAATATCATATATCATTGATTGGATAATTATAAATATGGAACCCATTACCCTTACCTTATGTTTATTGGTGTTCGCCC (double strand) [Probe 4]”, the binding result in data set [4], in data set [2] and in data set [3] was “binds” in each case.
With “CGTATGCTGACCCGCTATGTTGGTGACCCTTCTGCCTGATCTTTTCGCCTGCGTGAGCATCGCAGGCGCTTCAACCAATTCTTCAATTCTATTAATCACGTCCAGTAACGATCTAACCACGATCTTGATGTAGATCCCACTCCTGCATCTTTCCTGAGAAACGATTTGACTTAGTTTTTGTATGGGAATAATTTCTCCCTGTCAACATTGGATACAATATCATATATCATTGATTGGATAATTATAAATATGGAACCCATTACCCTTACCTTATGTTTATTGGTGTTCGCCC (double strand) [Probe 4 unlabeled competitor]”, the binding entry in data set [5] and in data set [6] was “binds” each time.
For the sequence “CCTAACTCGGCGGAATACTCCGACCTGAATCAGGCATTTCATATGGAAATATGGAATGTTGCTGGCAACGAAAAAATGAAAATGTTGCTCTGTAATATGTGGAACGGCCTGTCGATGGGCCATAAGGTCACCGAAGAAGAGTATGCCGTGATTTCCATTCAGGAACATAAAAGTATTCTGCAAGCTCTTGAACTTCATGATGAAACATTGGCACGCCAGCGCATGCGCGAACACATTATTCGCTCAATGGAGAATATGCTGACCCGCTATGTTG (double strand) [Probe 2]”, the binding result is reported as “no binding” in data set [1], “binds” in data set [2] and “binds” in data set [3].
